According to US8962819B2, “Anti-C5 alpha antibodies” (Adienne S.A., priority 2002, dated 2015):

Key:
C5 alpha chain = target: T1, C5 alpha chain (Homo sapiens, UniProt P01031); assay: Immunoblotting on separated C5 chains; assay type: binding; conditions: 100 ng chain, FIG. 2 lane 1
T1 construct: Lane 1: 100 ng of C5 alpha chain; lane 2: 100 ng of beta chain; purchased Quidel
Experimental: (§1) The alpha and beta chains of C5 were electrophoretically separated by means of SDS-PAGE in 10% polyacrylamide and then transferred onto nitrocellulose. […] Lane 1: 100 ng of C5 alpha chain; lane 2: 100 ng of beta chain; lane 3: mixture of the two chains. […] It can be seen that scFv TSA-12/22 recognises the alpha chain of C5 in lane 1, but not the beta chain in lane 2.
(§2) Purified proteins. Purified components C4 to C9 were purchased from Quidel (Saint Diego, Calif.) and the human recombinant C5a component was purchased from SIGMA-ALDRICH® S.r.1. (Milan, Italy). C5 alpha and beta subunits were obtained by incubating 50 μg of C5 diluted in 0.55 M TRIS-HCl pH 8.1 containing DTT (0.02 M) for 30 min at room temperature (RT), followed by treatment with iodoacetamide (0.12 M) for 1 hour at RT. Alpha and beta chains were purified by gel filtration on Superose 12 (Pharmacia Biotech, Milan, Italy) in Fast Protein Liquid Chromatography (FPLC) and purity was assessed by SDS-PAGE in non-reducing conditions.
(§3) It was first characterised, by means of the Western-blotting technique, whether the TS-A12/22 antibody recognises the alpha or beta of subunit of the C5 complement component prepared as described in Materials. Briefly the two subunits were electrophoresed in separate wells and transferred on nitrocellulose membranes. A solution containing Tris 50 mM pH 7.6, 0.5 M NaCl and 4% skimmed powder milk was used to block non-specific sites for 1 hour at 37° C. […] The enzymatic reaction was developed with blue tetrazolium and 5-bromo-4-chlorine-3-indolil phosphate (SIGMA-ALDRICH®, 0.30 mg/ml) diluted in 0.1 M Tris-HCl pH 9.5 containing 0.1 M NaCl and 5 mM MgCl2. Rainbow RPN 756 ([…]™ Italy (a trademark of General Electric Healthcare Limited)) were used as molecular weight markers.

C5 beta chain = target: T2, C5 beta chain (Homo sapiens, UniProt P01031); assay: Immunoblotting on separated C5 chains; assay type: binding; conditions: 100 ng chain, FIG. 2 lane 2
T2 construct: Lane 1: 100 ng of C5 alpha chain; lane 2: 100 ng of beta chain; purchased Quidel
T2 sequence (P01031 19-673 limits assumed): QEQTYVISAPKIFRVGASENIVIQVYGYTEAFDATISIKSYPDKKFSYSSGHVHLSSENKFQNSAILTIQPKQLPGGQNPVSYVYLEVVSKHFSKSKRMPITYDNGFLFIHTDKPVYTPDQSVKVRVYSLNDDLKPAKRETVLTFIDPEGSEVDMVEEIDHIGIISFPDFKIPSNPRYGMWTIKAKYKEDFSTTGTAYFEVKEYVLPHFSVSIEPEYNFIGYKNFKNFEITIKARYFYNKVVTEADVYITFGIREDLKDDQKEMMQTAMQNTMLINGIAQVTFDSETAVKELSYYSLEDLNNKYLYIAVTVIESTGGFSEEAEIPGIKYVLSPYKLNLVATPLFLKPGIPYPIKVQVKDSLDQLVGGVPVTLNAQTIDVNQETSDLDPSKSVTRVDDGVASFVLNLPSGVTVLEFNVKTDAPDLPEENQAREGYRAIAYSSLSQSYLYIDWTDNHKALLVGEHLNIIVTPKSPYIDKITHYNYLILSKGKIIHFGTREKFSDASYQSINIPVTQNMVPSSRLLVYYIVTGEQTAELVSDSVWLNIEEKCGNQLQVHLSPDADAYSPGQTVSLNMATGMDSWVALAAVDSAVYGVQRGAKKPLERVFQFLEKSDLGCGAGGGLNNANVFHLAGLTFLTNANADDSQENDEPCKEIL
Experimental: as §1, §2, §3

C5 = target: T3, C5 (Homo sapiens, UniProt P01031); assay: Hemolytic assay, alternative pathway (rabbit erythrocytes); assay type: biochemical; conditions: 600 ng scFv, increasing amounts of C5, FIG. 4B
T3 construct: C5 alpha and beta subunits were obtained by incubating 50 μg of C5; purchased Quidel
T3 sequence (P01031 678-1676 limits assumed, one chain of several): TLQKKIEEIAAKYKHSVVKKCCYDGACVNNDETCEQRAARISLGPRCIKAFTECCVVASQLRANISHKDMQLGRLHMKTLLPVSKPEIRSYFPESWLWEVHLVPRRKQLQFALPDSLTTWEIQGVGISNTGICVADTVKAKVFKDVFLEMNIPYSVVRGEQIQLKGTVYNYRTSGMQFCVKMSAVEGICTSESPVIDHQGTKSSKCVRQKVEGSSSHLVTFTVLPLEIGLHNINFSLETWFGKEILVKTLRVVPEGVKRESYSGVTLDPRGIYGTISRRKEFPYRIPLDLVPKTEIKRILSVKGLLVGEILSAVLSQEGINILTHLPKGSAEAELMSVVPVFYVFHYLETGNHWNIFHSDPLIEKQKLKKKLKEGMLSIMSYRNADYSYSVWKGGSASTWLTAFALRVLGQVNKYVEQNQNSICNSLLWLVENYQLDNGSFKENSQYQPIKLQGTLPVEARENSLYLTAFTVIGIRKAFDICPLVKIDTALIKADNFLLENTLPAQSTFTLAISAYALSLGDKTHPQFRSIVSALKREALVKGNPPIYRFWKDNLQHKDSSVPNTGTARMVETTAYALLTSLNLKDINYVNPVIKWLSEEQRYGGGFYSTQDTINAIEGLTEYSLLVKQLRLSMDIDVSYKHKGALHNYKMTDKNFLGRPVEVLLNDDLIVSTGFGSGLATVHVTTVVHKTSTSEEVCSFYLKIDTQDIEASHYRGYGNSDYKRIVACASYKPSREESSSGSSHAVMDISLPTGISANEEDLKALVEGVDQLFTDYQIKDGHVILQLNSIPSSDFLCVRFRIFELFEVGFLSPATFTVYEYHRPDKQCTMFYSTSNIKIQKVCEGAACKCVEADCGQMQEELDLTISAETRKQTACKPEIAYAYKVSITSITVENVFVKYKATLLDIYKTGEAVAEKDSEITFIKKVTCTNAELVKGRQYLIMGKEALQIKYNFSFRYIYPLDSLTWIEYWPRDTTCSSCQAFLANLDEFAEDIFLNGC
Experimental: Values from spectrophotometric reading performed at 412 nm to measure inhibition of lysis of sheep erythrocytes coated with EAC1-3b, through the classical complement activation pathway (A Panel); or of rabbit erythrocytes in order to measure the alternative pathway of complement activation (B Panel). Increasing amounts of C5 were mixed with 600 ng of the scFv antibody of the invention with an unrelated scFv, or with GVBS in which the scFv of the invention were solubilised, as described in example 9. After incubation with serum lacking in C5, obtained from a patient with selective deficiency of this complement component, the percentage of hemolysis was measured compared to the 100% value obtained by lysing erythrocytes in an equal volume of distilled H2O and a blank obtained by resuspending eythrocytes in GBVS. Having assessed the characteristics of the inhibition of the classical activation pathway of factor C5 by the TS-A12/22 antibody, it was then verified whether there was inhibition also of the alternative pathway of C5 activation, and at which level. […] After incubation for 30 minutes at 37° C., the percentage of erythrocyte lysis was measured by comparison to a 100% value obtained by lysing erythrocytes with an equal volume of distilled of H2O and to a blank consisting of erythrocytes re-suspended in GBVS. […]

T1 sequence (P01031 678-1676 limits assumed): as the sequence (P01031 678-1676 limits assumed, one chain of several) above

B1: TS-A12/22: anti-C5 scFv obtained from TS-A12 by VL chain shuffling; VH3/V-48 and Vλ3/V2-14; amino acid sequence SEQ ID NO:6 (protein, listed as Homo sapiens)
scFv: DIRMTQSPDSLAVSLGERATINCKSSQSVLYSSNNKNYLAWYQQKPGQPPKLLIYWASTRESGVPDRFSGSGSGTDFTLTISSLQAEDVAVYYCQQYYSTPQLTFGGRTKVDIKSGGSTITSYNVYYTKLSSSGTQVQLQQSEGGVVQPGRSLRLSCAASGFTFSSYGMNWVRQAPGKGLEWVSYISSSSSTIYYADSVKGRFTISRDNSKNTLYLQMNSLRAEDTAVYYCARGPGMDVWGQGTTVTVSS
- recognition of C5 alpha sub-unit (C5 alpha chain): recognises
- recognition of C5 beta sub-unit (C5 beta chain): does not recognise
- recognition of C5 beta sub-unit (C5 beta chain; listed as TSA-12/22): not
- inhibition of lysis of rabbit erythrocytes through the alternative pathway (C5): inhibits
